The values below come from publication PMC6389178, “Nanoscale click-reactive scaffolds from peptide self-assembly” (Journal of Nanobiotechnology, 2017).

Where no end group is shown, it is not given here.

The series concerns the molecule itself. Put plainly: atomic force microscopy + co-sedimentation; peptide 10 mg/mL in 10% acetonitrile in water, shaken at 600 rpm at 37 °C for 24 h; fibrils imaged by AFM on mica; fibrils pelleted at 313,000 x g for 30 min, supernatant with unaggregated monomer removed, and the pellet's peptide analysed by LC-MS.

For YTIAALLSPYS-NH2 [TTR105-115 peptide, unfunctionalised 'wild-type', amide-terminated], the binding result was “binds”.
